Assay results reported in a protein production outcome set (Wang et al. 2014).

Test: label from the status in PepcDB records

Row | Sequence | protein production
1 | MARQSTKFSDKFLRALKPQEKPYDIREGDGFGVRVFPSGARSFFYMYHFDGKRRFLNLGKYPQLSLADARQKHRDAVSQHAKGIDPLAATQEQKRERREAITVADLIDEYVKNWAKVYKVERSATEDERALSKDVLPYWGKRKAKDIKRTDAIALLERIVRRGSPGQARNILKVGRKMYEFAIERKYVEANPFSRISKAVPATMPRTRSRVLTESEIKYIWSAIDKSAGSDETKRALKLILVTAQRPGEVIGMHRREIDGEWWTIPPERIKTEKDRTRSNSVGPQPHRVYLSPLALELIGDKDGYIFESPRGGAMDSKALSHVVHAAPLVPELVRDTEGHVFAGPCGPVAAKALMQLLEKEIAYPDKEKYYGLTRWTPHDLRRTARTRMSAINIPTRHAERVLNHTLPGIQKTYDLYRYDPQKKAALTKWAAYLEELLR | failed
2 | MLHIDDAMIEDAVTPQAAQEVLHAAFLDFGRGSAAMQRRVRTEAGGVKLSTLGAVIPGQGVAGAKVYTTIKGQFQFVILLFSAADGRPLATCDAGTLTRKRTAACTVLAAGALARPRSSVLGLFGAGTQGVEHAAQLSARFALEAILVHDPHASPEVVERIGRRCGVPARMAAPADIAAQADIVVTATRSATPLFAGQALRAGAFVGAIGSSLPHTRELDDEALRRARAVVVEWREQTLSEAGDLVLAAPDTGLDAKVVELADVLAGRATARQADEDIVIYKSVGVGLEDVALAGYAYRRLAAQRGWPAP | failed
3 | MIQLKNVGITLSGKGYERFSLENINLEVNGEKVIILGPNGSGKTTLLRAISGLLPYSGNIFINGMEVRKIRNYIRYSTNLPEAYEIGVTVNDIVYLYEELKGLDRDLFLEMLKALKLGEEILRRKLYKLSAGQSVLVRTSLALASQPEIVGLDEPFENVDAARRHVISRYIKEYGKEGILVTHELDMLNLYKEYKAYFLVGNRLQGPISVSELLESSIVEGERNDALLVLDIMDKKVSIVKGDLGMKFGALGSLNRIYGIIGA | not failed
4 | MNMIDQLNITDFQVFTDENSDKSVSKIYKFSSKMILSDFHAQPHGFLNGGASLALAEITAGMASNAIGSSQYFALGQSISANHLNSKKCEGFVNACGLLLKNGKRNHVWEIKITDENETLISQITVVNALVPQKNSDKLEHHHHHH | failed
5 | MRLISKPVLCNYYVTYRCNATCGFCDIWEKPSPYVTPEAVEQNMRDLKKLGVKVIDFTGGEPLLHREMDTLLRIAKKYGMITTLTTNALLYPKWAERLKGLIDMLHFSLDSPDKAEHDTLRGVACFDFVLESIEKAKALG | failed
6 | MKFGEHLSKSLIRQYSYYYISYDDLKTELEDNLSKNNGQWTQELETDFLESLEIELDKVYTFCKVKHSEVFRRVKEVQEQVQHTVRLLDSNNPPTQLDFEILEEELSDIIADVHDLAKFSRLNYTGFQKIIKKHDKKTGFILKPVFQVRLDSKPFFKENYDELVVKISQLYDIARTSGRPIKGDSSAGGKQQNFVRQTTKYWVHPDNITELKLIILKHLPVLVFNTNKEFEREDSAITSIYFDNENLDLYYGRLRKDEGAEAHRLRWYGGMSTDTIFVERKTHREDWTGEKSVKARFALKERHVNDFLKGKYTVDQVFAKMRKEGKKPMNEIENLEALASEIQYVMLKKKLRPVVRSFYNRTAFQLPGDARVRISLDTELTMVREDNFDGVDRTHKNWRRTDIGVDWPFKQLDDKDICRFPYAVLEVKLQTQLGQEPPEWVRELVGSHLVEPVPKFSKFIHGVATLLNDKVDSIPFWLPQMDVDIRKPPLPTNIEITRPGRSDNEDNDFDEDDEDDAALVAAMTNAPGNSLDIEESVGYGATSAPTSNTNHVVESANAAYYQRKIRNAENPISKKYYEIVAFFDHYFNGDQISKIPKGTTFDTQIRAPPGKTICVPVRVEPKVYFATERTYLSWLSISILLGGVSTTLLTYGSPTAMIGSIGFFITSLAVLIRTVMVYAKRVVNIRLKRAVDYEDKIGPGMVSVFLILSILFSFFCNLVAK | failed
7 | MQVEQRTLNTAAHPFQITAYWLDQISDFETAVDYPIMIICPGGGFTYHSGREEAPIATRMMAAGMHTVVLNYQLIVGDQSVYPWALQQLGATIDWITTQASAHHVDCQRIILAGFSAGGHVVATYNGVATQPELRTRYHLDHYQGQHAAIILGYPVIDLTAGFPTTSAARNQITTDARLWAAQRLVTPASKPAFVWQTATDESVPPINSLKYVQAMLQHQVATAYHLFGSGIHGLALANHVTQKPGKDKYLNDQAAIWPQLALRWLQEQGLLAGNYLEHHHHHH | not failed
8 | MSHPDYRMNLRSLGTHRGVSAVAGPHDIGASPGDKKSKNRSTRGKKKSIFETYMSKEDVSEGLKRGTLIQGVLRINPKKFHEAFIPSPDGDRDIFIDGVVARNRALNGDLVVVKLLPEEHWKVVKPESNDKETEAAYESDIPEELCGHHLPQQSLKSYNDSPDVIVEAQFDGSDSEDGHGITQNVLVDGVKKLSVCVSEKGREDGDAPVTKDETTCISQDTRALSEKSLQRSAKVVYILEKKHSRAATGFLKLLADKNSELFRKYALFSPSDHRVPRIYVPLKDCPQDFVARPKDYANTLFICRIVDWKEDCNFALGQLAKSLGQAGEIEPETEGILTEYGVDFSDFSSEVLECLPQGLPWTIPPEEFSKRRDLRKDCIFTIDPSTARDLDDALSCKPLADGNFKVGVHIADVSYFVPEGSDLDKVAAERATSVYLVQKVVPMLPRLLCEELCSLNPMSDKLTFSVIWTLTPEGKILDEWFGRTIIRSCTKLSYEHAQSMIESPTEKIPAKELPPISPEHSSEEVHQAVLNLHGIAKQLRQQRFVDGALRLDQLKLAFTLDHETGLPQGCHIYEYRESNKPCCAGTPRPKQGCSVTWWNSATRWGCPWTSAPQEPSIKA | failed
9 | MGVLAEVYEMLNTCNRCGFCHTACKTYKVDGAETMVSRGRVQLIKAVADGVIEADADYEDSINSCLLCGECAVACPSGVSAKELVMAARRDLKLRHGLEHHHHHH | not failed
10 | MRPVLLLCCLFLSATAQAEDCSPQTSVGSWCELPLAALHPTQQNVGLLQVEDDQAKLAGKKPKALERYLRKKEIPVVIGPGGRFYLTDRHHLSSALWRLDPKQGVPVKVIGRLPQASDFWEKMQENHWVWLHDARGAEIPPEALPDALAGLGDDPYRALAGYAEDENAFDKDRQSYFIEFHWARYFGERMHWRPISRATLPDDLKQALRLACEPAARELPGYRQDCPHLEHHHHHH | failed
11 | MGTHIKNQYISPPNTVYDCSIVKLPKIENRSGNITPIHSWVNIPFQIKRIFYSYDIPGGESRGAHAHKKCHQFLIAASGSFEVVLDDGISKRTVLLNRPFYGLHIPPGIWASEQGFSSGSVCLVLASHVYEEDDYLRDYQGFLNYKSQGIFEMFINVNGGGVSPKIFYLPFLFTKSKEEVA | failed
12 | MKSKWIFIQWFKYNNIRMKDESTNKFGSLNLAVLVLSVYVLGALIVDTTIKLPEETSRLLNYIDLAICIFFFVEFCIRLYHADSKMKFMRWGWIDLVSSIPMINFLRFGRVFRLIRLFRILRAFRTTKEFVTYVFRIKAQGAFTSATILAILLIIFSSIAILQVENASTSNITTAEDAIWWSYVTITTVGYGDKYPVTTEGRIIAMFLMTAGVGLFGTFTAYIASLFVSDNKKEETETKE | failed
13 | MTDDRYTVISADCHAGADLLDYRPYLAKRHHDAFDAWAATYVNPYEDLLADTADRNWNSERRLAELAADGIVAEVVFPNTIPPFFPSASLMAPAPTAAEFEQRWAGLRAHNRWLADFCAAAPGRRAGVFQILLNDVEEAVKEISWAAGAGLRGGLLLPGTPPGSGLPELYSKAYDPIWAVCEELDVPVNHHAGSASPPLGDEPAARAVFMVETTWFSHRALWHLVFGGAFRRHPGLRLVLTEQGSGWIPGVLDMLDYYHGRLVAAGPKSATAEAKFGAGLDRAMGKGPSEVWRDNCFVGASFMRPHEVPLRDRIGLDKIMWGSDYPHDEGTYPYSREGLRIAYAGLPRTEIAAMAGGNAARVYGFDLSLLDPIAAKVGPTVAELARPLEEPPADATSPVFARGGSVRVW | failed
14 | MNSKAMQALIFLGFLATSCLAQAPAPAPTTVTPPPTALPPVTAETPSPIASPPVPVNEPTPAPTTSPTTSPVASPPQTDAPAPGPSAGLTPTSSPAPGPDGAADAPSAAWANKAFLVGTAVAGALYAVVLA | failed
